Reference: patent publication US20110178027A1 (published 2011)
Like-named read-outs stand apart in the source and are kept apart here. No end group written: not given here.

How the values were obtained:
PC1/3 = biological target: T1, PC1/3 (UniProt P29120 111-753); assay: enzyme inhibition
T1 chain: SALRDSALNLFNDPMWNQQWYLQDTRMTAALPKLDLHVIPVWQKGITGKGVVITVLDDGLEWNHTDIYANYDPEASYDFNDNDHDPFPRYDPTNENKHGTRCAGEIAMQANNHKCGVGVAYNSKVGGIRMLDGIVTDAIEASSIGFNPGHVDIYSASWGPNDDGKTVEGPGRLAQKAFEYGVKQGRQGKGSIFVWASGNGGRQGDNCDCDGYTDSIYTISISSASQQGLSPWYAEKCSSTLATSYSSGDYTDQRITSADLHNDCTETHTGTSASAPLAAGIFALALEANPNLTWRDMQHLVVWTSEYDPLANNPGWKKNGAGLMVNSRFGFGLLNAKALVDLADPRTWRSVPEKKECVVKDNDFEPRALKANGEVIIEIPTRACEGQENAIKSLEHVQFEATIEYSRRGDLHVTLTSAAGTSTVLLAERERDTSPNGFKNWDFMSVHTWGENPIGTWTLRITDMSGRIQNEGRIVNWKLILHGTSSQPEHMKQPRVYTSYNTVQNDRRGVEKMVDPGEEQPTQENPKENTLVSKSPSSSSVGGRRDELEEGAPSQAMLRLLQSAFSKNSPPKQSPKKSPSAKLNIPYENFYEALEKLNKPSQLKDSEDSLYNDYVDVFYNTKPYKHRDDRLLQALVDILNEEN

PACE4 = biological target: T2, PACE4 (UniProt P29122 150-969); assay: enzyme inhibition
T2 chain: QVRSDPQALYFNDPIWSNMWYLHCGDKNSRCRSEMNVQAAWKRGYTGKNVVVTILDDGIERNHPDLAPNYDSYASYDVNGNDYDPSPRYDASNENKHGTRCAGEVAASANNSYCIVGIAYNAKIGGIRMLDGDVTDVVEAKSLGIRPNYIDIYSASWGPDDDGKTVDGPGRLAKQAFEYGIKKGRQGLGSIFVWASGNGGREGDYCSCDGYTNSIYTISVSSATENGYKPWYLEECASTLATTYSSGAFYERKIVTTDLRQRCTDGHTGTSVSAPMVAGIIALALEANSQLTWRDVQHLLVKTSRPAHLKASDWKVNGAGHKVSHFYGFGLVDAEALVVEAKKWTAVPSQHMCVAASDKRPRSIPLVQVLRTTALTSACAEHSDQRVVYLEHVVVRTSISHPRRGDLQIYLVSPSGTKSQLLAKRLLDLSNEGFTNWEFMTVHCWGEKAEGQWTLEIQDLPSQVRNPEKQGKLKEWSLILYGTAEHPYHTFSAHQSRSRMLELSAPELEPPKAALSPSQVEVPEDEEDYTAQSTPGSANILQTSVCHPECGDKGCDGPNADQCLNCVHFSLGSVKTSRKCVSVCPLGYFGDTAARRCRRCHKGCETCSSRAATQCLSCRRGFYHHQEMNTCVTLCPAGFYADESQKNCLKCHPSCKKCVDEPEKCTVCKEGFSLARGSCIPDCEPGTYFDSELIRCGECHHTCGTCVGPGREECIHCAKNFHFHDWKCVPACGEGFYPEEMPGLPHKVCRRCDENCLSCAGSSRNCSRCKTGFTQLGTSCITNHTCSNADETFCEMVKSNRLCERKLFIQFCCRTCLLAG

PC5/6 = biological target: T3, PC5/6 (UniProt Q92824 115-913); assay: enzyme inhibition
T3 chain: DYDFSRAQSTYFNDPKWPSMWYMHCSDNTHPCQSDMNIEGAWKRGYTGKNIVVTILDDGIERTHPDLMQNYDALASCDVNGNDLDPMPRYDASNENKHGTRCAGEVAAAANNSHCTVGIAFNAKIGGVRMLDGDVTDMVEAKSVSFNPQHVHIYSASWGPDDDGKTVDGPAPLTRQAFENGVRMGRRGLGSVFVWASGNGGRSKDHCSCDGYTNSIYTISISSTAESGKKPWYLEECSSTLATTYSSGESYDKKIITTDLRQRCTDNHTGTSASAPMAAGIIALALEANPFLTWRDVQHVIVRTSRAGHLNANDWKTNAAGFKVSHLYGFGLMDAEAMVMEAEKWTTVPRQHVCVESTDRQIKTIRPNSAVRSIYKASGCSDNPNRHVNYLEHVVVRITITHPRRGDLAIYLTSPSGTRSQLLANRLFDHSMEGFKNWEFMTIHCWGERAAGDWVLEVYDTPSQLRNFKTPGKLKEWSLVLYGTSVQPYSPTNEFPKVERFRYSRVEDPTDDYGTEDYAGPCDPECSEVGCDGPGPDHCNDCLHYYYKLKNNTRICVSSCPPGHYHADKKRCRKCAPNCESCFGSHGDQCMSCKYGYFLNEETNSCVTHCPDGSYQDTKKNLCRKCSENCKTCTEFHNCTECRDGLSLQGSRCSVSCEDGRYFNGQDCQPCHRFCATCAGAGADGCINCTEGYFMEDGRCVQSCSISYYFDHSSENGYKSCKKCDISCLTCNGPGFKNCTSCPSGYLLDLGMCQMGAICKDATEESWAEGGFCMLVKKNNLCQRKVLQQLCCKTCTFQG

PC7 = biological target: T4, PC7 (UniProt Q16549 142-667); assay: enzyme inhibition
T4 chain: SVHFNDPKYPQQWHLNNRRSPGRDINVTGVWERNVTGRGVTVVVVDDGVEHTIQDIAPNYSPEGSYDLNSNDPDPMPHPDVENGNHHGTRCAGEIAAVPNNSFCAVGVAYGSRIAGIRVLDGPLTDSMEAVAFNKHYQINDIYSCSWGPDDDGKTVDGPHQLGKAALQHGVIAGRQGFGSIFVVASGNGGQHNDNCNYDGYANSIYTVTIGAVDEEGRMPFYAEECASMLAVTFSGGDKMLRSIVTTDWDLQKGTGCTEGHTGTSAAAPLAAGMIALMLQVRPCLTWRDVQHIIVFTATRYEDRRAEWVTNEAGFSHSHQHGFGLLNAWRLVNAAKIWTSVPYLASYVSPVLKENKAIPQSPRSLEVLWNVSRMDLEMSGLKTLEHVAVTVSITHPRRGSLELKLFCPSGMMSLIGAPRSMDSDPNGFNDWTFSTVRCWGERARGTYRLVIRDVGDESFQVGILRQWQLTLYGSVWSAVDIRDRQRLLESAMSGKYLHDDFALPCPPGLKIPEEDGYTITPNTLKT

furin [1] = biological target: T5, furin (UniProt P09958 108-715); assay: enzyme inhibition
T5 sequence (P09958 108-715): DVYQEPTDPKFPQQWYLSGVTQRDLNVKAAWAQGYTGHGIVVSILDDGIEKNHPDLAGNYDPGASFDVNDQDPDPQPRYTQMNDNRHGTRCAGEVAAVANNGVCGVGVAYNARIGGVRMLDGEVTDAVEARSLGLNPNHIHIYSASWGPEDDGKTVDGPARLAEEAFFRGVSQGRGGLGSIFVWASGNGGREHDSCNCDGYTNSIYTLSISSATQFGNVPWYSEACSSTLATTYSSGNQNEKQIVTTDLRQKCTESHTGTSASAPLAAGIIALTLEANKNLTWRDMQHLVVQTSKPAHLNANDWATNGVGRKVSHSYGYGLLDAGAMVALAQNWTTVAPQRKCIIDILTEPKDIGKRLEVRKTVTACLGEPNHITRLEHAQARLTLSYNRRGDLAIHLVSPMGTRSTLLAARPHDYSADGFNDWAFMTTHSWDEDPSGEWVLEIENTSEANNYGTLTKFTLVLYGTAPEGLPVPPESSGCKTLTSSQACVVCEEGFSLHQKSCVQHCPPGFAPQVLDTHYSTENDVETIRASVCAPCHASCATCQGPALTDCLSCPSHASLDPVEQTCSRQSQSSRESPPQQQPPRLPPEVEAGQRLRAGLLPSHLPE

furin [2] = biological target: T5, furin
PC2 = biological target: T6, PC2 (UniProt P16519 110-638); assay: enzyme inhibition
T6 chain: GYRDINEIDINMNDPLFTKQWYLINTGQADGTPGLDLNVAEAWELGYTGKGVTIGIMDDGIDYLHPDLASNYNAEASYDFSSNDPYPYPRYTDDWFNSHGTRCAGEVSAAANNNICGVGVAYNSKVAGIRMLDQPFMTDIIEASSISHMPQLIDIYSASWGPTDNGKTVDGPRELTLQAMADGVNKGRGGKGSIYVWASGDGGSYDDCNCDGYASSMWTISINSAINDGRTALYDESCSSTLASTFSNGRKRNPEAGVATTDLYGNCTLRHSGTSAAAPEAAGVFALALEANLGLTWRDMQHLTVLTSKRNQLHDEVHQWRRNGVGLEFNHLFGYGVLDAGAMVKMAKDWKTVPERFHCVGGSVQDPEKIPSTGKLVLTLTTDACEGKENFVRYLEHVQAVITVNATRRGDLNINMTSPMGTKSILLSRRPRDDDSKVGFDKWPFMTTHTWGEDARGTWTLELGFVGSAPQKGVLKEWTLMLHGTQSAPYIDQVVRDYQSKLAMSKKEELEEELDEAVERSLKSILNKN

B1: RVKR-NH2 (peptide)
peptide: RVKR-NH2
Ki (PC1/3): 1.45 µM
Ki (PACE4): 4.34 µM
Ki (PC5/6): 5.57 µM
Ki (PC7): 10.4 µM
Ki (furin [1]): 8.11 µM

B2: LLRVKR-NH2 (peptide)
peptide: LLRVKR-NH2
Ki (furin [2]): 0.54 µM
Ki (PC2): 3.27 µM
Ki (PC1/3): 0.17 µM
Ki (PC5/6): 0.13 µM
Ki (PC7): 0.1 µM

B3: LLLLLRVKR-NH2 (peptide)
peptide: LLLLLRVKR-NH2
Ki (PC2): 4.83 µM
Ki (PC1/3): 0.37 µM
Ki (PC7): 0.04 µM
Ki (furin [1]): 1.5 µM

B4: LLLRVKR-NH2 (peptide)
peptide: LLLRVKR-NH2
Ki (PC2): 12.9 µM
Ki (PC1/3): 0.24 µM
Ki (PC5/6): 0.34 µM
Ki (PC7): 0.05 µM
Ki (furin [1]): 0.98 µM

B5: LLLLLLRVKR-NH2 (peptide)
peptide: LLLLLLRVKR-NH2
Ki (PC2): 4.55 µM
Ki (PC1/3): 1.16 µM
Ki (PC7): 0.03 µM
Ki (furin [1]): 1.39 µM

B6: LRVKR-NH2 (peptide)
peptide: LRVKR-NH2
Ki (PC1/3): 0.58 µM
Ki (PC5/6): 0.36 µM
Ki (PC7): 2.49 µM
Ki (furin [1]): 0.55 µM

B7: LLLLRVKR-NH2 (peptide)
peptide: LLLLRVKR-NH2
Ki (furin [2]): 1.14 µM
